From patent US20210107983A1 (Boehringer Ingelheim, published 2021)

T1: Cyno B7H6-His (cynomolgus monkey)
T1 construct: also called CyB7H6; cyB7-H6
T1 chain: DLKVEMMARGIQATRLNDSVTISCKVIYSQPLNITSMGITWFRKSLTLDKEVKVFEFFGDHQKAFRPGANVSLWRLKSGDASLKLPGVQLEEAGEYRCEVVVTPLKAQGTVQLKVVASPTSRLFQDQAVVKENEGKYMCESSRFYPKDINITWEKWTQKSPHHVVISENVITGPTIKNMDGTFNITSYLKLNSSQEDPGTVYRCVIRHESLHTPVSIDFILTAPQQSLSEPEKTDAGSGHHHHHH


Tests used:
Cyno B7H6-His [1] = target: T1, Cyno B7H6-His; test: ratio of SPR KDs cyno/human
Experimental: (§1) About 700 RU of the B7H6/CD3 binding protein was captured on flow cell 2 of the Protein A/G surface for 60 s at a flow rate of 10 μL/min. The analytes HuB7H6, CyB7H6 and HuB7H1 were injected across both flow cells over captured B7H6/CD3 binding protein for 300 s at a flow rate of 30 μL/min with a dissociation of 1200 s. The concentrations of HuB7H6 and CyB7H6 were 0 nM, 6.25 nM, 12.5 nM, 25 nM, 50 nM and 100 nM. The concentrations of HuB7H1 were 0 nM and 1 μM. The surface was regenerated by injecting 10 mM glycine-HCl, pH 1.5 for 20 s at a flow rate of 30 μL/min across both flow cells.
(§2) The reference flow cell 1 (interactions with sensor surface) and blank (HBS-EP+ or 0 nM analyte) were subtracted from the raw data.
(§3) The B7H6/CD3 binding protein analyte was injected horizontally over the immobilized surface for 300 s at a flow rate of 30 μL/min with a dissociation of 600 s. The concentrations of the B7H6/CD3 binding protein used were 0 nM, 1.2 nM, 3.7 nM, 11.1 nM, 33.3 nM and 100 nM.

[2] = target: T2, chicken egg white lysozyme (chicken, UniProt P00698 19-147); test: SPR, 1 µM binder over immobilized lysozyme
T2 construct: unrelated positively charged protein, amine-coupled to the chip; also called Lysozyme (positive)
Experimental: (§4) The experiment was performed on a Biacore® T200 SPR system (GE Healthcare Life Sciences). The dilution, surface preparation, and binding experiments were performed at 25° C. in 1×HBS-EP buffer prepared from 10×HBS-EP. The flow rate for both the immobilization protocol and binding experiment was at 5 μL/min.
(§5) To prepare the surface for the non-specific binding experiment, chicken egg white lysozyme and trypsin inhibitor from Glycine max soybean were coupled manually to a Biacore® series S CM5 sensor chip (GE Healthcare sciences) with the surface density of 3000-5000 RU using the amine coupling kit according to the manufacture instructions. Samples were prepared at 1 μM in 1×HBS-EP buffer. The samples were injected over activated surfaces with a 10 min association and 15 min dissociation. The data was collected using Biacore® T200 Control Software version 2.0.1 and analyzed using Biacore® T200 Evaluation Software version 3.0 (GE Healthcare Life Sciences).

Human CD3 E+G HuFc-6xHis = target: T3, Human CD3 E+G HuFc-6xHis (human); test: SPR, CD3E+G-hFc immobilized, binder analyte
T3 construct: also called HuCD3E+G-hFc; huCD3
Experimental: To determine the affinity of the B7H6/CD3 binding protein to human and cyno CD3E+G-hFc, the experiment was performed on a Bio-Rad ProteOn™ XPR36 instrument. Briefly, HuCD3E+G-hFc and CyCD3E+G were amine-coupled on a ProteOn™ GLM sensor chip (Bio-Rad) and the B7H6/CD3 binding protein was flowed over the immobilized surface. The running buffer for this experiment and all serial dilutions were prepared in HBS-EP+. The GLM sensor chip was normalized according to Bio-Rad's recommendations. The sensor chip was activated with an equal mixture of EDC/s-NHS in the horizontal direction for 300 s at a flow rate of 30 μL/min HuCD3E+G-hFc was immobilized in the vertical direction at 0.4 μg/mL, 0.2 μg/mL and 0.1 μg/mL in 10 mM acetate pH 4.5 to L1, L2 and L3, respectively, for 300 s at a flow rate of 30 μL/min resulting in about 100 RU of HuCD3E+G-hFc on L1, 40 RU of HuCD3E+G-hFc on L2 and 0 RU of HuCD3E+G-hFc on L3. CyCD3E+G-hFc was immobilized in the vertical direction at 0.4 μg/mL, 0.2 μg/mL and 0.1 μg/mL in 10 mM acetate pH 4.5 to L4, L5 and L6, respectively, for 300 s at a flow rate of 30 μL/min resulting in about 385 RU of […], 170 RU of CyCD3E+G-hFc on L5 and 50 RU of CyCD3E+G-hFc on L6. The sensor chip was deactivated with 1M ethanolamine-HCl in the horizontal direction for 300 s at a flow rate of 30 μL/min.
as §3
The interspot (interactions with sensor surface) and blank (HBS-EP+ or 0 nM analyte) were subtracted from the raw data.

Cyno B7H6-His [3] = target: T1, Cyno B7H6-His; test: SPR, binder captured on Protein A/G, B7H6 analyte
Experimental: (§6) To determine the affinity of human and cyno B7H6 and human B7H1 to B7H6/CD3 binding proteins, the experiment was performed on a Biacore™ 8K instrument (GE Healthcare Life Sciences). Briefly, the B7H6/CD3 binding protein was captured via Protein A/G. The running buffer for this experiment and all serial dilutions were prepared in HBS-EP+. The CM5 sensor chip was activated with an equal mixture of EDC/NHS across both flow cells for 420 s at a flow rate of 10 μL/min and immobilized with recombinant Protein A/G (50 μg/ml in 10 mM NaOAc, pH 4.5) across all flow cells for 420 s at a flow rate of 10 μL/min resulting in about 2500 RU of Protein A/G on the surface. The sensor chip was deactivated with 1M ethanolamine-HCl across all flow cells for 420 s at a flow rate of 10 μL/min.
as §1, §2

Human B7H1 = target: T4, Human B7H1 (human, UniProt Q9NZQ7 20-239); test: SPR, binder captured on Protein A/G, HuB7H1 analyte
T4 construct: also called HuB7H1; huB7-H1
Experimental: as §6, §1, §2

[4] = target: T5, trypsin inhibitor from Glycine max soybean (Glycine max (soybean)); test: SPR, 1 µM binder over immobilized trypsin inhibitor
T5 construct: unrelated negatively charged protein, amine-coupled to the chip
Experimental: as §4, §5

T3 sequence (chain, as listed by the source limits assumed): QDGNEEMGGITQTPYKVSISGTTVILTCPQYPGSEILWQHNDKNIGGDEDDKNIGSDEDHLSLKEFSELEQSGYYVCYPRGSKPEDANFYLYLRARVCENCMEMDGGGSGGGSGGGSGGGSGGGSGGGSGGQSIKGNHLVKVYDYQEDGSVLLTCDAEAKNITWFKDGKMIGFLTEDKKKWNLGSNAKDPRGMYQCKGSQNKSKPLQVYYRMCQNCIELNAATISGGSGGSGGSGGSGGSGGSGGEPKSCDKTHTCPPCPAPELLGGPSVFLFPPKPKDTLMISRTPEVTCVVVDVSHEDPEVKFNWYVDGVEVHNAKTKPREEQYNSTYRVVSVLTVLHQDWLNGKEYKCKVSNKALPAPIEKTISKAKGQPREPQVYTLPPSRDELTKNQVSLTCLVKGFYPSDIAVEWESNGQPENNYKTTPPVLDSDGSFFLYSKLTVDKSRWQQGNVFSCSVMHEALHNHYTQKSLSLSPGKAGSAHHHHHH
T5 sequence (P01070 25-205): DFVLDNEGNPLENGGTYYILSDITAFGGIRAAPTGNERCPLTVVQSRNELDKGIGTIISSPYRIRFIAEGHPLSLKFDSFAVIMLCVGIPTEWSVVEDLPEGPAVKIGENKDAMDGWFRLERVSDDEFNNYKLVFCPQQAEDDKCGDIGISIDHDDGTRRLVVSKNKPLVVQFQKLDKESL
T2 sequence (P00698 19-147): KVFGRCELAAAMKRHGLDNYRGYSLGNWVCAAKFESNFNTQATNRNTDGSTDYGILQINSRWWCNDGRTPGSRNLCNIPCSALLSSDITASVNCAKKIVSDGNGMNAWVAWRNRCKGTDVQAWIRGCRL
T4 sequence (Q9NZQ7 other isoform, or with tags, fused parts or gaps limits assumed): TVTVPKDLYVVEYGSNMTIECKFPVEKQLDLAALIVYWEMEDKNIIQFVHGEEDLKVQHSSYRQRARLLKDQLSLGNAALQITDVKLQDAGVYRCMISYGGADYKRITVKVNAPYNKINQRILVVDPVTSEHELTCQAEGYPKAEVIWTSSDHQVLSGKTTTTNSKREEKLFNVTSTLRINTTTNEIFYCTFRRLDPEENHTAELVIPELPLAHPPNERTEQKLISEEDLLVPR

| cy/hu B7-H6 (Cyno B7H6-His [1]) | Non-specific binding (RU) [2] | Kd (Human CD3 E+G HuFc-6xHis) | Kd (Cyno B7H6-His [3]) | binding result (Human B7H1) | Non-specific binding (RU) [4] | Binder |
| --- | --- | --- | --- | --- | --- | --- |
| 1.5 | 7.2 RU | 4.1 nM | 4.6 nM | no binding (tested: 1 µM) | 30.6 RU | B7H6#13/CD3#1 (bispecific antibody, human IgG1, kappa, lambda, L234A L235A, scFab-Fc heterodimer, one B7H6 chain and one CD3 chain) chain 1: DIQMTQSPSSLSASVGDRVTITCKASQNVGKYVAWYQQKPGKAPKSLIYSASNRYDGVPSRFSGSGSGTDFTLTISSLQPEDFTTYYCQQYISYPLTFGAGTKLEIKRTVAAPSVFIFPPSDEQLKSGTASVVCLLNNFYPREAKVQWKVDNALQSGNSQESVTEQDSKDSTYSLSSTLTLSKADYEKHKVYACEVTHQGLSSPVTKSFNRGECGGGGSEGKSSGSGSESKSTEGKSSGSGSESKSTGGGGSQVQLVQSGAEVKKPGASVKVSCKASGYTFTSYWMNWMKQAPGQGLEWMGGIYLNGDSTDYNEKFKGRVTMTVDTSTSTVYMELSSLRSEDTAVYYCTRRGDYFGDFWGQGTLVTVSSASTKGPSVFPLAPSSKSTSGGTAALGCLVKDYFPEPVTVSWNSGALTSGVHTFPAVLQSSGLYSLSSVVTVPSSSLGTQTYICNVNHKPSNTKVDKRVEPKSCDKTHTCPPCPAPEAAGGPSVFLFPPKPKDTLMISRTPEVTCVVVDVSHEDPEVKFNWYVDGVEVHNAKTKPREEQYNSTYRVVSVLTVLHQDWLNGKEYKCKVSNKALPAPIEKTISKAKGQPREPQVYTLPPSREEMTKNQVSLWCLVKGFYPSDIAVEWESNGQPENNYKTTPPVLDSDGSFFLYSKLTVDKSRWQQGNVFSCSVMHEALHNHYTQKSLSLSPG chain 2: EAVVTQEPSLTVSPGGTVTLTCRSSTGAVTTSNYANWVQEKPGQLPRGLIGGTNKRAPWVPARFSGSLLGGKAALTLSGAQPEDEAEYFCALWYSNLWVFGGGTKLTVLGQPKAAPSVTLFPPSSEELQANKATLVCLISDFYPGAVKVAWKADGSPVNTGVETTTPSKQSNNKYAASSYLSLTPEQWKSHRSYSCQVTHEGSTVEKTVAPAECSGGGGSEGKSSGSGSESKSTEGKSSGSGSESKSTGGGGSEVQLVESGGGLVQPGGSLKLSCAASGFTFNTYAMNWVRQAPGKGLEWVARIRSKYNNYATYYADSVKDRFTISRDDSKNTAYLQMNNLKTEDTAVYYCVRHGNFGNSYVSWFAYWGQGTLVTVSAASTKGPSVFPLAPSSKSTSGGTAALGCLVKDYFPEPVTVSWNSGALTSGVHTFPAVLQSSGLYSLSSVVTVPSSSLGTQTYICNVNHKPSNTKVDKRVEPKSCDKTHTCPPCPAPEAAGGPSVFLFPPKPKDTLMISRTPEVTCVVVDVSHEDPEVKFNWYVDGVEVHNAKTKPREEQYNSTYRVVSVLTVLHQDWLNGKEYKCKVSNKALPAPIEKTISKAKGQPREPQVYTLPPSREEMTKNQVSLSCAVKGFYPSDIAVEWESNGQPENNYKTTPPVLDSDGSFFLVSKLTVDKSRWQQGNVFSCSVMHEALHNRFTQKSLSLSPG |
| 5.9 | 8.1 RU | 4.2 nM | 0.6 nM | no binding (tested: 1 µM) | 32.7 RU | B7H6#14/CD3#1 (bispecific antibody, human IgG1, kappa, lambda, L234A L235A, scFab-Fc heterodimer, one B7H6 chain and one CD3 chain) chain 1: DIQMTQSPSSLSASVGDRVTITCKASQNVGKYVAWYQQKPGKAPKSLIYSASNRYDGVPSRFSGSGSGTDFTLTISSLQPEDFATYFCQQYISYPLTFGAGTKLEIKRTVAAPSVFIFPPSDEQLKSGTASVVCLLNNFYPREAKVQWKVDNALQSGNSQESVTEQDSKDSTYSLSSTLTLSKADYEKHKVYACEVTHQGLSSPVTKSFNRGECGGGGSEGKSSGSGSESKSTEGKSSGSGSESKSTGGGGSQVQLVQSGAEVKKPGASVKVSCKASGYTFTNYWMNWMKQAPGQGLEWIGGIYLNGDSTDYNEKFKGKVTMTVDTSTSTVYMELSSLRSEDTAVYYCTRRGDYFGDFWGQGTLVTVSSASTKGPSVFPLAPSSKSTSGGTAALGCLVKDYFPEPVTVSWNSGALTSGVHTFPAVLQSSGLYSLSSVVTVPSSSLGTQTYICNVNHKPSNTKVDKRVEPKSCDKTHTCPPCPAPEAAGGPSVFLFPPKPKDTLMISRTPEVTCVVVDVSHEDPEVKFNWYVDGVEVHNAKTKPREEQYNSTYRVVSVLTVLHQDWLNGKEYKCKVSNKALPAPIEKTISKAKGQPREPQVYTLPPSREEMTKNQVSLWCLVKGFYPSDIAVEWESNGQPENNYKTTPPVLDSDGSFFLYSKLTVDKSRWQQGNVFSCSVMHEALHNHYTQKSLSLSPG chain 2: EAVVTQEPSLTVSPGGTVTLTCRSSTGAVTTSNYANWVQEKPGQLPRGLIGGTNKRAPWVPARFSGSLLGGKAALTLSGAQPEDEAEYFCALWYSNLWVFGGGTKLTVLGQPKAAPSVTLFPPSSEELQANKATLVCLISDFYPGAVKVAWKADGSPVNTGVETTTPSKQSNNKYAASSYLSLTPEQWKSHRSYSCQVTHEGSTVEKTVAPAECSGGGGSEGKSSGSGSESKSTEGKSSGSGSESKSTGGGGSEVQLVESGGGLVQPGGSLKLSCAASGFTFNTYAMNWVRQAPGKGLEWVARIRSKYNNYATYYADSVKDRFTISRDDSKNTAYLQMNNLKTEDTAVYYCVRHGNFGNSYVSWFAYWGQGTLVTVSAASTKGPSVFPLAPSSKSTSGGTAALGCLVKDYFPEPVTVSWNSGALTSGVHTFPAVLQSSGLYSLSSVVTVPSSSLGTQTYICNVNHKPSNTKVDKRVEPKSCDKTHTCPPCPAPEAAGGPSVFLFPPKPKDTLMISRTPEVTCVVVDVSHEDPEVKFNWYVDGVEVHNAKTKPREEQYNSTYRVVSVLTVLHQDWLNGKEYKCKVSNKALPAPIEKTISKAKGQPREPQVYTLPPSREEMTKNQVSLSCAVKGFYPSDIAVEWESNGQPENNYKTTPPVLDSDGSFFLVSKLTVDKSRWQQGNVFSCSVMHEALHNRFTQKSLSLSPG |
